Experimental findings from PMC10075959 (Science Advances, 2023) are described below.

Like-named read-outs stand apart in the source and are kept apart here.

The term Kd denotes the constant that tells how readily two partners part at equilibrium. For orientation: stoichiometry N means the number of molecules, sites or subunits per partner or assembly.

Data set [1] concerns the molecule itself. Briefly: AUC + other: circular dichroism. On the technique in general: CD spectra are sensitive to the conformation of chiral molecules.
The data set “AUC” deals with the molecule itself. The experiment in a line: AUC.
Data set [2] concerns the molecule itself. The experiment in a line: AUC + other: circular dichroism. The source holds these as a separate data set.

For RQPASTVKPDMAEEIAALVLAKLGKDAGQPKQV (also called murine hepatitis virus) [MHV nucleocapsid LRS peptide 223-255], the Kd in data set [1] came out at 800 µM.
Take MAGNGGDAALALLLLDRLNQLESKMSGKGQQQQGQTV [SARS-CoV-2 N-protein leucine-rich sequence peptide N:210-246 (NLRS)]: the “stoichiometry N” value in “AUC” came out at 3. Further, in data set [2], the Kd came to 810 µM.

B1: MERS nucleocapsid LRS peptide 197-238 (peptide)
peptide: not shown
Turning to B1, the Kd in data set [1] worked out at 110 µM.
Still for that read-out and setting: with MASGGGETALALLLLDRLNQLESKVSGKGQQQ [SARS-CoV-1 nucleocapsid LRS peptide 211-242] the figure was 500 µM; with TRSDSNQSSSDLVAAVTLALKNLGFDNQSKSPSSSGT (also called human coronavirus NL63) [NL63 nucleocapsid LRS peptide 174-210], 140 µM.

B2: 229E-related bat coronavirus nucleocapsid LRS peptide 170-221 (peptide)
peptide: NERLPKSNSKQSNQDDIMAAVAAALEKLGFERPNDASQPQKKQNKGTPKPSR
With B2, the Kd in data set [1] was 290 µM.
